Experimental data published in the DeepSol protein solubility set.

experiment: soluble on expression in E. coli; label from the status in PepcDB or PDB records

Sequence	soluble on expression in E. coli
MKGPYKHFMQKEIFEQPDSAFNTMRGRIDFENCVVTLGGLKSWLSTIRRCRRIIMIACGTSYHSCLATRSIFEELTEIPVSVELASDFLDRRSPVFRDDTCVFVSQSGETADSILALQYCLERGALTVGIVNSVGSSMSRQTHCGVHINAGPEIGVASTKAYTSQYIALVMFALSLSNDSISRKGRHEEIIKGLQKIPEQIKQVLKLENKIKDLCNSSLNDQKSLLLLGRGYQFATALEGALKIKEISYMHSEGVLAGELKHGILALVDEDLPIIAFATRDSLFPKVMSAIEQVTARDGRPIVICNEGDAIISNDKVHTTLEVPETVDCLQGLLNVIPLQLISYWLAVNRGIDVDFPRNLAKSVTVE	soluble
GAMAEEATFTANFKDTDLKSFIETVGANLNKTIIMGPGVQGAVSIRTMTPLNERQYYQLFLNLLEAQGYAVVPMENDVLKVVKSSAAKVEPLPLVGEGSDNYAGDEMVTKVVPVRNVSVRELAPILRQMIDSAGSGNVVNYDPSNVIMLTGRASVVERLTEVIQRVDHAGNRTEEVIPLDNASASEIARVLESLTKNSGENQPATLKSQIVADERTNSVIVSGDPATRDKMRRLIRRLDSE	soluble
MIKSLKQLAIQAGLEYLGEDVSIQTVAINSNEVRQDCLFVAIVANRDGHEFIPSAIANGAKAILVSKKQGLDIPQVVCGNTIKGLRALAKEYRKSLTMPIISLTGSCGKTSVKEMIVTLLGERKVHFTQGNLNNYLGVPMTILETPHDVDFAVIEAGTNVGGEIKAAADIIQPNIAMITNVGACHLENLKTLDGVMIEKGELLKALPRDGFCIVNLDDERIPNYAKLLECKKISCSMTNPKADILVLDYRATSNSYAFKIRIFSQEYDYQLPNIGKHNLFNSVLAIASVVAVGLEPKDFLQNTQNIKNYKGRFSTEKLSDKLTLIDDTYNASAGAVQAAIEDLAEFDGKKILAISSMRELGDEAENYHRKMGQWLKKANLDKIFLFGEKNLIDYVLAEYSNQNAKYYESKDELNNDLAKILDEYKSQSTKLTVKGARSFKMEEVVKFVKENL	not soluble
KEDMATSELNKTVQKVEEVSKKIKNKAKPKVVWASVYEGSAYIAPKDSYVDNMIKMAGGINACASIDSNEGRVSIEQLHEVAKDADIFVYSSSSDYAPNLDSIKSSAPVLADLDVVKNGNLWVFAPDYYQSVDKTDELIVDLVEMFHPGTTGEKIKHYINYDK	not soluble
MLQRSVFFLSDRTGITAETLGHSLLTQFDGIEWKKHYASFLDSAAKAQAVIEQINTIAEQEGQPALVFSTLLDPVMLASIRRADCVLFDFFETCLGTLEAVLQQPPARIPGRSHVLRQDASYFRRIAAIQYALNSDDGANAKILADADVIVVGVSRTGKTPVCVYLALQYGVLAANYPFTPEDMGAIQLPPLLQPLRKKLFGLTLNTSRLQSIREERYPGSHYASFAECQRELQWQNELYRQFDIPSINTTDVSIEEISASIVNRAHLERRQHGTLEHHHHHH	not soluble
LTGFQVGPMLQYQTGFHGIVLDFSLLYVERGIKLTNTSNRRSADIKTQSIDIPIELKWEMGMSNNFDLFLGVGPSFSFLVDKDNWGRKLAHIAVDVIDKDLPSMGWRSTEVGLNLGGGVKIVNHLMVSCYYNIGLTQSAKHNIGGNKHDAIDQIFDGDVFESKNRYWQLSLAYVF	not soluble
MSLGAMPTVRDLRLIPFRIPLKAPLRWGKSSELAALEHALLEVELSDGSIGRAEVAIRPTIYGETLGSVRAGLEYLRPRLLGLEADDQEGIRAVLEAFPFNFGLKGALDTALWEAWARSEGEELYQVLKPAKHRVRVAYILGLGEEDEVLEDARMAFGAGVRVFKVKVGRDLEADTRRILRLKEAFPEAELYADANESLPPKEAERYLLAWKELGLRYVEEPLPVEEVEARRALREKGILSLIADDAAMTPKDLKRELALNTFDVLNLKPARTGVTWTLEMLALARERGKKAMVGSQAQSAFGAYQSALLAFQQGVTEPCELAFHLKAEGGFFPFPPFREGWLYWEDLVEARFDEEAFARYALKEAEGHHHHHH	soluble
WGYEAVGRFTSWEQIATYPIDNDRKGNKTVVPGDIMYKDVNGDGVINYMDERPIGYRSDSTPTLNFGINLSASWKGFDLAMDWTGSGMTSWQQQYETARPFQNDGNSPEEVFKDAWHLADIWDADSQLIPGKYPLIRLNNEETSAYDKSTFWLHNVKYIKLRNLEFGYTLPKRIVAKAGISNLRLYVSGTNLFSISNIPFMDPECIDSNGLDYPTMRVVNLGINLKF	not soluble
MGSDKIHHHHHHMASLSELAVFIAVAEQGSFVGAGRVLGVSASAVGKRISRLEVDLGVRLLQRNTRSLALTAEGETVLSRGRSLLDEAESLRVVLERSSRQPGGVLRLSLPPIGGVLMAELAAFRQRYPEVALELDYSERNVDIIEEGFDAAIRVGAGDDGKLRSLALPGFRRLIVAAPDYLVRHGQPRSAAQLAEHQLIHYRSPNSGKLEAWPLVNAELPRALVCNSVHARLDFALQGQGIACLPDISIRRELEDGSLRPLLGSENGEKVVLRLLWPSSRGLSARMEAFLGFMRERSGAAPCENFKVRA	not soluble
MSKEQAHAELKKDYLIHDEKIMLMQEIVDRQLAAVPDLYRVKDEVSIYIGIPFCPTKCAYCTFPAYAIQGQAGRVGSFLWGLHYEMQKIGEWLKEHDVKVTTIYFGGGTPTSITAEEMDLLYEEMVRSFPDVKNIREITVEAGRPDTITEEKLAVLNKYDIDRISINPQSYENETLKAIGRHHTVEETIEKYHLSRQHGMNNINMDLIIGLPGEGVKEFRHSLSETEKLMPESLTVHTLSFKR	not soluble
METIWIPHLHTALAYMHERFLELFILPDSCPSKKLEELQQKEGN	not soluble
MSDVAEEKAEFLVIRTYGSESFRKECADLIEKELHKLNATIARVPVGEFVAYAENAVKNETDSEAVGSSSVKRENSANDSPANTNDVDIVSSPVKRGRGRKAKNPSADADVNDTGSSPVKKGRGRPIKNPSADAGSPLVKKGRGRRAQTPAADTDAIDTASSPVKKGRGRPAKNPSADAGSPLVKKGRGRQAKNLAADTDAIDTASSPVKKGRGRPLKKTAAEADVNGLGSPSANRITGCPPSTKVSNQSSPPEPAVNESEEADEPVLKRGRSVKQPKDESESDDEDAEKAPAAIPKKRGRPGKSAIDAFFDGSD	soluble
PITDERVYESIGHYGGETVKIVRIEKARDIPLGATVRNEMDSVIISRIVKGGAAEKSGLLHEGDEVLEINGIEIRGKDVNEVFDLLSDMHGTLTFVLIPS	soluble
MGHHHHHHSHMNTKTMRLPPRRVLTADKRKERDAFISSVTDNPPEIAKFPSPPPKLVPPPVNPISKKSSTAAAEPIGSNQLMLAGYLSHEYLTQGTLFGEQWNQARAQAESSKIKPSHTVEPAEECEPKRKRYREVANLLRSDGAQLPGIVNPAQLARFLKL	soluble
MWAAYFEKTLVYKQNVKKSRKSKKEDPAEAEKLMKQALEEYLPKYSELLPIILARGTVTLFKNLALTAKDAMTPKEVEPEEPTEEELAQQRRQQRAAAAPQQLEFKFEVAQGMKAVSTNDPEMEKKYAAENEVVAQKQSGATWTPDELASLVRLSTEKYPAGTPNRWEQMGRVLNRSAEDVIAMAGKMKQMKQEDYTKLLMTTIQQSVPVEEKSEDDWSQAEQKAFETALQKYPKGTDERWERISEEIGSKTKKQVMVRFKQLAEMIRKKKTNDT	not soluble
GMIPIVDSRIGAYLDGLLPEADPVVAAMEQIARERNIPIVDRQTGRLLYLLARIKQPQLVVVPGDGLGCASWWFARAISISSRVVMIDPDRDNVEHARRMLHDNGLIDRVELQVGDPLGIAAGQRDIDILFMDCDVFNGADVLERMNRCLAKNALLIAVNALRRGSVAESHEDPETAALREFNHHLSRRRDFFTTIVPVGNGVLLGYRLS	soluble
AQELYKNENAPVHERVMDLISRLTVEEKISLLRATSPGIPRLGIDKYYHGNEALHGVVRPGRFTVFPQAIGLAATWNPELQKRVATVISDEARARWNELDQGREQKEQFSDVLTFWSPTVNMARDPRWGRTPETYGEDPFLSGIMGTAFVNGLQGDDPHYLKIVSTPKHFAANNEEHNRFVCNPQISEKQLREYYFPAFEMCVKEGKAASIMSAYNALNDVPCTLNPWLLQKVLRQDWGFQGYVVSDCGGPALLVNAHKYVKTKEAAATLSIKAGLDLECGDDVYDGPLLNAYKQYMVSDADIDSAAYHVLTARMKLGLFDS	not soluble
MSLRIVKVRTFHVRPRWLFVAVETDKGVIGWGEAVVEGQARVVERMIGDLAEYLAGRDPRRIEHHWQGMYRGAFYRGGAVLCSAISGIDQALWDITARDLGVPVHALLGGAVRDSVRMYGHARGVTDAEFAHAARRSRSAGMTAIKFGLDGPVRALDTVEYVDRQVARVAAVREAVGPAFDIALDFHGRTSPAMARRLAERLSPMGPLFIEEPCLPENVDALAEIARATNVPIAAGERIFTKWGFRELLERRAVSVVQPDLCHAGGISEVRRIAAMAEAHYVALAPHNPLGPVSLAACLQVAASTPNFLIQEYLALDDGADLGAGILAVPFSVENGHIAVPTGPGLGIEVDEAQLMDRVYAGDWTTPRFTHQDGSHGDWEGHHHHHH	not soluble
WLSGYAGPADGTQQPDAPEHAVAREALVDLCRRRHFLSGTPQQLSTAALLSGCHARFGPLGVELRKNLASQWWSSMVVFREQVFAVDSLHQEPGSSQPRDSAFRLVSPESIREILQDREPSKEQLVAFLENLLKTSGKLRATLLHGALEHYVNCLDLVNRKLPFGLAQIGVCFHPVSNSNQTPSSVTRVGEKTEASLVWFTPTRTSSQWLDFWLRHRLLWWRKFAMSPSNFSSADCQDELGRKGSKLYYSFPWGKEPIETLWNLGDQELLHTYPGNVSTIQGRDGRKNVVPCVLSVSGDVDLGTLAYLYDSFQLAENSFARKKSLQRKVLKLHPCLAPIKVALDVGKGPTVELRQVCQGLLNELLENGISVWPGYSETVHSSLEQLHSKYDEMSVLFSVLVTETTLENGLIQLRSRDTTMKEMMHISKLRDFLVKYLASASNVAAALDHHHHHH	soluble
MLLREINRYCKEKATGKRIYAVPKLWIPGFFKKFDEKSGRCFVDPYELGAEITDWILNQSREWDYSQPLSFLKGEKTPDWIKRSVVYGSLPRTTAAYNHKGSGYYEENDVLGFREAGTFFKMMLLLPFVKSLGADAIYLLPVSRMSDLFKKGDAPSPYSVKNPMELDERYHDPLLEPFKVDEEFKAFVEACHILGIRVILDFIPRTAARDSDLIREHPDWFYWIKVEELADYTPPRAEELPFKVPDEDELEIIYNKENVKRHLKKFTLPPNLIDPQKWEKIKREEGNILELIVKEFGIITPPGFSDLINDPQPTWDDVTFLRLYLDHPEASKRFLDPNQPPYVLYDVIKASKFPGKEPNRELWEYLAGVIPHYQKKYGIDGARLDMGHALPKELLDLIIKNVKEYDPAFVMIAEELDMEKDKASKEAGYDVILGSSWYFAGRVEEIGKLPDIAEELVLPFLASVETPDTPRIATRKYASKMKKLAPFVTYFLPNSIPYVNTGQEIGEKQPMNLGLDTDPNLRKVLSPTDEFFGKLAFFDHYVLHWDSPDRGVLNFIKKLIKVRHEFLDFVLNGKFENLTTKDLVMYSYEKNGQKIVIAANVGKEPKEITGGRVWNGKWSDEEKVVLKPLEFALVVQE	soluble
MAHHHHHHMDTPEREVSPPPAEEDENKKRVIIILEGAHLQLIETKRYIYELANIMKHKHLLRDQKNEEEMRNFRPDILHQCLIHLLESALNKYGLLQVYIKTHDNQLFYVSSHLKIPKTYDQFESLMVTFLRKYKIKANEKNLCLLKFLKNDYSAILPINGKKIGLSVKGKKVHFSEYVQNLQNEDVPVTFFIGAVAYSNPITKLENLDDNICISEFSLSAATCCSTICSEFENLLGLF	soluble
SGGCTALVAVSLQGKLYMANAGDSRAILVRRDEIRPLSFEFTPETERQRIQQLAFVYPELLAGEFTRLEFPRRLKGDDLGQKVLFRDHHMSGWSYKRVEKSDLKYPLIHGQGRQARLLGTLAVSRGLGDHQLRVLDTNIQLKPFLLSVPQVTVLDVDQLELQEDDVVVMATDGLWDVLSNEQVAWLVRSFLPGNQEDPHRFSKLAQMLIHSTQGKEDSLTEEGQVSYDDVSVFVIPLHSQGQESSDH	soluble
